± gives the standard error. For some of these results: Variants at the floor of the assay were thinned out.
B1: glmS ribozyme (parent)
chain: AUAAAAGCGCCAGAACUACAGAAAUGUAGUUGACGAGGAGGAGGUUUAUCGAAUUUUCGGCGGAUGCCUCCAAA

Assays:
Details in all cases: with glucosamine-6-phosphate
glucosamine-6-phosphate [1] = variants of: B1; experiment: kcat; higher = faster cleavage; RNA array
Procedure, shortened: (§1)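 Tiles of sequenced MiSeq chips were imaged over ~14 h at 37 °C. On them, barcoded ribozyme variants had been transcribed in situ by E. coli RNA polymerase and were tracked via a hybridised Cy3 probe while glucosamine-6-phosphate (40 μM to 10 mM) in HEPES/KCl/Mg(OAc)2 buffer flowed in. Per-tile medians, normalised to baseline and to non-cleaving reference variants, were fit to one- or two-exponential decays for kobs, and weighted Michaelis–Menten fits gave kcat and KM.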

glucosamine-6-phosphate [2] = variants of: B1; experiment: KM; higher = weaker cofactor use; RNA array
Procedure, shortened: as §1

glucosamine-6-phosphate [3] = variants of: B1; experiment: self-cleavage kobs at 640 uM GlcN6P; higher = faster cleavage; RNA array
Procedure, shortened: as §1

glucosamine-6-phosphate [4] = variants of: B1; experiment: self-cleavage kobs at 2500 uM GlcN6P; higher = faster cleavage; RNA array
Procedure, shortened: as §1

glucosamine-6-phosphate [5] = variants of: B1; experiment: self-cleavage kobs at 10000 uM GlcN6P; higher = faster cleavage; RNA array
Procedure, shortened: as §1

glucosamine-6-phosphate [6] = variants of: B1; experiment: self-cleavage kobs at 40 uM GlcN6P; higher = faster cleavage; RNA array
Procedure, shortened: as §1

glucosamine-6-phosphate [7] = variants of: B1; experiment: self-cleavage kobs at 160 uM GlcN6P; higher = faster cleavage; RNA array
Procedure, shortened: as §1

G13C A14U
kcat (glucosamine-6-phosphate [1]): 0.000311 ± 2.1e-05 s⁻¹
KM (glucosamine-6-phosphate [2]): 2100 ± 320 µM
self-cleavage kobs at 640 uM GlcN6P (glucosamine-6-phosphate [3]): 6.86e-05 ± 1.5e-05 s⁻¹
self-cleavage kobs at 2500 uM GlcN6P (glucosamine-6-phosphate [4]): 0.000186 ± 3e-05 s⁻¹
self-cleavage kobs at 10000 uM GlcN6P (glucosamine-6-phosphate [5]): 0.00025 ± 3.1e-05 s⁻¹

A6C U30A
kcat (glucosamine-6-phosphate [1]): < 1e-05 s⁻¹
self-cleavage kobs at 40 uM GlcN6P (glucosamine-6-phosphate [6]): < 1e-05 s⁻¹
self-cleavage kobs at 160 uM GlcN6P (glucosamine-6-phosphate [7]): < 1e-05 s⁻¹

G37C A64U C68G
kcat (glucosamine-6-phosphate [1]): 1.68e-05 ± 1.7e-06 s⁻¹
KM (glucosamine-6-phosphate [2]): 29.1 ± 13 µM

A12G
kcat (glucosamine-6-phosphate [1]): 0.00143 ± 6.1e-05 s⁻¹
KM (glucosamine-6-phosphate [2]): 4240 ± 270 µM
self-cleavage kobs at 40 uM GlcN6P (glucosamine-6-phosphate [6]): 1.01e-05 ± 1.5e-06 s⁻¹
self-cleavage kobs at 160 uM GlcN6P (glucosamine-6-phosphate [7]): 5.14e-05 ± 1.6e-06 s⁻¹
self-cleavage kobs at 640 uM GlcN6P (glucosamine-6-phosphate [3]): 0.000189 ± 3.5e-06 s⁻¹
self-cleavage kobs at 2500 uM GlcN6P (glucosamine-6-phosphate [4]): 0.000587 ± 2.8e-05 s⁻¹
self-cleavage kobs at 10000 uM GlcN6P (glucosamine-6-phosphate [5]): 0.001 ± 1.6e-05 s⁻¹

A6C C70G
kcat (glucosamine-6-phosphate [1]): 1.09e-05 ± 2.1e-06 s⁻¹

U55C G62C
kcat (glucosamine-6-phosphate [1]): 1.58e-05 ± 2.1e-06 s⁻¹
KM (glucosamine-6-phosphate [2]): 1220 ± 460 µM

U55G G66A
kcat (glucosamine-6-phosphate [1]): 0.0134 ± 0.004 s⁻¹
KM (glucosamine-6-phosphate [2]): 1790 ± 770 µM
self-cleavage kobs at 40 uM GlcN6P (glucosamine-6-phosphate [6]): 0.000461 ± 7.7e-05 s⁻¹
self-cleavage kobs at 160 uM GlcN6P (glucosamine-6-phosphate [7]): 0.000877 ± 0.00021 s⁻¹
self-cleavage kobs at 640 uM GlcN6P (glucosamine-6-phosphate [3]): 0.00303 ± 0.00072 s⁻¹
self-cleavage kobs at 2500 uM GlcN6P (glucosamine-6-phosphate [4]): 0.00661 ± 0.0022 s⁻¹
self-cleavage kobs at 10000 uM GlcN6P (glucosamine-6-phosphate [5]): 0.0124 ± 0.002 s⁻¹

A12G G51C
kcat (glucosamine-6-phosphate [1]): < 1e-05 s⁻¹
self-cleavage kobs at 40 uM GlcN6P (glucosamine-6-phosphate [6]): < 1e-05 s⁻¹
self-cleavage kobs at 160 uM GlcN6P (glucosamine-6-phosphate [7]): < 1e-05 s⁻¹
self-cleavage kobs at 2500 uM GlcN6P (glucosamine-6-phosphate [4]): < 1e-05 s⁻¹
self-cleavage kobs at 10000 uM GlcN6P (glucosamine-6-phosphate [5]): < 1e-05 s⁻¹

G37C U69A
kcat (glucosamine-6-phosphate [1]): 1.84e-05 ± 4.8e-06 s⁻¹

G9U A48U C58G C67U
kcat (glucosamine-6-phosphate [1]): < 1e-05 s⁻¹
self-cleavage kobs at 40 uM GlcN6P (glucosamine-6-phosphate [6]): < 1e-05 s⁻¹
self-cleavage kobs at 640 uM GlcN6P (glucosamine-6-phosphate [3]): < 1e-05 s⁻¹

A39U G43U
kcat (glucosamine-6-phosphate [1]): 0.000561 ± 0.00011 s⁻¹
KM (glucosamine-6-phosphate [2]): 1770 ± 600 µM
self-cleavage kobs at 40 uM GlcN6P (glucosamine-6-phosphate [6]): 1.76e-05 ± 8.1e-06 s⁻¹
self-cleavage kobs at 160 uM GlcN6P (glucosamine-6-phosphate [7]): 5.96e-05 ± 8.5e-06 s⁻¹
self-cleavage kobs at 640 uM GlcN6P (glucosamine-6-phosphate [3]): 0.000127 ± 1.3e-05 s⁻¹
self-cleavage kobs at 2500 uM GlcN6P (glucosamine-6-phosphate [4]): 0.000418 ± 4.9e-05 s⁻¹
self-cleavage kobs at 10000 uM GlcN6P (glucosamine-6-phosphate [5]): 0.00046 ± 4.6e-05 s⁻¹

U30C G62A
kcat (glucosamine-6-phosphate [1]): < 1e-05 s⁻¹
self-cleavage kobs at 640 uM GlcN6P (glucosamine-6-phosphate [3]): < 1e-05 s⁻¹

A14U G40A
kcat (glucosamine-6-phosphate [1]): 0.0018 ± 0.0003 s⁻¹
KM (glucosamine-6-phosphate [2]): 1500 ± 450 µM
self-cleavage kobs at 40 uM GlcN6P (glucosamine-6-phosphate [6]): 4.43e-05 ± 1e-05 s⁻¹
self-cleavage kobs at 640 uM GlcN6P (glucosamine-6-phosphate [3]): 0.000643 ± 0.00013 s⁻¹
self-cleavage kobs at 10000 uM GlcN6P (glucosamine-6-phosphate [5]): 0.00161 ± 0.00021 s⁻¹

G35C C50G
kcat (glucosamine-6-phosphate [1]): 0.000276 ± 6.8e-05 s⁻¹
self-cleavage kobs at 40 uM GlcN6P (glucosamine-6-phosphate [6]): 3.26e-05 ± 1.4e-05 s⁻¹
self-cleavage kobs at 160 uM GlcN6P (glucosamine-6-phosphate [7]): 7.69e-05 ± 3.7e-05 s⁻¹
self-cleavage kobs at 640 uM GlcN6P (glucosamine-6-phosphate [3]): 4.8e-05 ± 1.6e-05 s⁻¹
self-cleavage kobs at 2500 uM GlcN6P (glucosamine-6-phosphate [4]): 0.000107 ± 1.2e-05 s⁻¹
self-cleavage kobs at 10000 uM GlcN6P (glucosamine-6-phosphate [5]): 0.000205 ± 1.5e-05 s⁻¹

C16U A39U
kcat (glucosamine-6-phosphate [1]): 0.0586 ± 0.022 s⁻¹
KM (glucosamine-6-phosphate [2]): 9390 ± 4200 µM
self-cleavage kobs at 160 uM GlcN6P (glucosamine-6-phosphate [7]): 0.00114 ± 0.00038 s⁻¹
self-cleavage kobs at 640 uM GlcN6P (glucosamine-6-phosphate [3]): 0.00392 ± 0.00055 s⁻¹
self-cleavage kobs at 2500 uM GlcN6P (glucosamine-6-phosphate [4]): 0.0111 ± 0.0017 s⁻¹
self-cleavage kobs at 10000 uM GlcN6P (glucosamine-6-phosphate [5]): 0.034 ± 0.0081 s⁻¹

G41A C70U
kcat (glucosamine-6-phosphate [1]): 0.0433 ± 0.0066 s⁻¹
KM (glucosamine-6-phosphate [2]): 1100 ± 210 µM
self-cleavage kobs at 40 uM GlcN6P (glucosamine-6-phosphate [6]): 0.00159 ± 0.00013 s⁻¹
self-cleavage kobs at 160 uM GlcN6P (glucosamine-6-phosphate [7]): 0.0046 ± 0.0007 s⁻¹
self-cleavage kobs at 640 uM GlcN6P (glucosamine-6-phosphate [3]): 0.0179 ± 0.0025 s⁻¹
self-cleavage kobs at 2500 uM GlcN6P (glucosamine-6-phosphate [4]): 0.0385 ± 0.013 s⁻¹
self-cleavage kobs at 10000 uM GlcN6P (glucosamine-6-phosphate [5]): 0.0374 ± 0.0057 s⁻¹

C50G U54A
kcat (glucosamine-6-phosphate [1]): 3.07e-05 ± 1e-05 s⁻¹
self-cleavage kobs at 40 uM GlcN6P (glucosamine-6-phosphate [6]): 2.88e-05 ± 1.2e-05 s⁻¹
self-cleavage kobs at 160 uM GlcN6P (glucosamine-6-phosphate [7]): 5.21e-05 ± 1.6e-05 s⁻¹
self-cleavage kobs at 2500 uM GlcN6P (glucosamine-6-phosphate [4]): 5.55e-05 ± 2.3e-05 s⁻¹
